Assay [1] deals with IL-6. The experiment in a line: IL-6 secretion by PBMC (ELISA). In kind it is cell-based, human. The following applies: 24 hours. On the procedure:
(§1) Primary cultures of human intestinal microvascular endothelial cells (HIMEC) isolated from normal jejunal mucosa/submucosal tissue were prepared as described (Strong et al., Gastroenterology 114:1244-1256 (1998)). The HIMEC were cultured in fibronectin-coated plasticware in MCDB medium (Sigma) supplemented with 20% FBS, 90 μg/ml heparin and 50 μg/ml endothelial cell growth factor (Sigma). T-24 cells (ATCC Accession No. HTB-4) were cultured in M199 medium supplemented with 10% FBS. PBMC were purified by Ficoll-Paque gradient as described (Current Protocols in Immunology, pp 7.1.1-7.1.2). Vero cells (ATCC Accession No. CCL-81) were grown in RPMI medium with 5% Nu serum and infected with the Silvio X-10/4 of T. cruzi as described previously (Chuenkova et al., J. Exp. Med. 181:1693-1703 (1995)).
(§2) Endothelial cells and T-24 cells were plated on 24-well plates at a density of 1×10^3 cells/well, while peripheral blood mononuclear cells (PBMC) were plated in the similar wells at 1×10^6/well. Triplicat cultures of cells were incubated test agents for a predetermined amount of time. […] Cytokines and chemokines released in the culture supernatants were measured by ELISA assay following the instructions of the manufacturer (Endogen). The cytokines tested were IL-1β, IL-4, IL-8, […], IL-12, IFN-γ, TNF-α, and the chemokines RANTES and MCP-1. Negative controls were cells incubated in medium containing polymixin B at 10 μg/ml, and positive controls were cells incubated with bacterial LPS at the low ng/ml range (for PBMC or HIMEC) or in the μg/ml range for carcinoma T-24 cells. In some experiments, IL-1β or TNFα were used as positive control for cytokine release.
TR peptides (Table 2) were synthesized at the Tufts Synthesis Facility (Boston, Mass.). Each peptide was purified by HPLC, and the number of amino acids and molecular weight of each peptide verified by mass spectrometry. Peptides were dissolved in growth medium (10% FCS in RPMI) and added at various concentrations to 1×10^6 PBMC/well in 24-well plates. After 24 hours, IL-6 was assayed by ELISA in the conditioned supernatants.

The nature of a further assay: Trans-sialidase assay. In kind it is biochemical. On the procedure: The trans-sialidase assay was performed as described (Scudder, P. et al., J. Biol. Chem., 268:9886-9891 (1993)) with slight modifications. Various amounts of intact enzyme or enzyme fragments were added to 50 mM PBS, Ph 7.2, containing 15% fetal calf serum and […] of [^14C]N-acetyllactosamine (4×10^5 dpm), 50 μg BSA and 0.02% NaN3 in a volume of 60 μl. After incubation for a predetermined amount of time at room temperature, the reaction mixture was diluted to 1.0 ml with distilled water and applied to a column containing 1.0 ml Q-Sepharose equilibrated with water. Sialylated product was eluted with 1 M NaCl and quantified by scintillation counting.
TS enzymatic activity was measured by the sialylation of the acceptor ^14C-labeled N-acetyllactosamine on anion exchange resins (Scudder, P. et al., J. Biol. Chem. 268:9886-9891 (1993)). Recombinant TSA-1, was expressed on insect sf9 cells and purified from serum-free medium by ion exchange chromatography (monoQ) and preparative SDS-PAGE (Wrightsman, R. A. et al., J. Immunol., 153:3148-3154 (1994).

Assay [2] concerns IL-6. Put plainly: IL-6 secretion by T-24 carcinoma cells (ELISA). To be noted: 24 hours. The assay is classed as cell-based, human. On the procedure:
as §1, §2

B1: TS-H32 (protein, listed as Trypanosoma cruzi)
chain: KKKQVFSKIFYSEDDGKTWKFGEGRSAFGCSEAVALEWEGKLIINTRVDYRRRLVYESSDMGNTWLEAVGTLSRVWGPSPKSNQPGSQSSFTAVTIEGMRVMLFTHPLNFKGRWLRDRLNLWLTDNQRIYNVGQVSIGDENSAHSSVLYKDDKLYCLHEINSNEVYSLVFARLVGELRIIKSVLQSWKNWDSHLSSICTP
In the case of B1, the “IL-6 secretion by PBMC” value in the assay with IL-6 [1] is reported as “stimulating IL-6 secretion”. In the assay “Trans-sialidase assay”, the “trans-sialidase (enzymatic) activity” value was “enzymatically-inactive”. For the same molecule, the “IL-6 secretion by T-24 cells” value with IL-6 [2] is “stimulating IL-6 secretion”.

B2: TS-154: recombinant catalytically active trans-sialidase construct with 5 tandem repeat units (protein, listed as Trypanosoma cruzi)
chain: KKKQVFSKIFYSEDEGKTWKFGEGRSDFGCSEPVALEWEGKLIINTRVDYRRRLVYESSDMGNSWVEAVGTLSRVWGPSPKSNQPGSQSSFTAVTIEGMRVMLFTHPLNFKGRWLRDRLNLWLTDNQRIYNVGQVSIGDENSAYSSVLYKDDKLYCLHEINSNEVYSLVFARLVGELRIIKSVLQSWKNWDSHLSSICTP
For the molecule B2, in the assay with IL-6 [1], the “IL-6 secretion by PBMC” value was “as powerful as enzymatically-inactive TS-H32 in stimulating IL-6 secretion”. Further, in “Trans-sialidase assay”, the “trans-sialidase (enzymatic) activity” value was “enzymatically-active”. Further, the “IL-6 secretion by T-24 cells” value with IL-6 [2] was “as powerful as enzymatically-inactive TS-H32 in stimulating IL-6 secretion”.

Source of the values: patent US20090117593A1, “T. Cruzi-derived neurotrophic agents and methods of use therefor” (Tufts University, priority 2006, published 2009).
